± gives the uncertainty stated by the source.
Experiment: protein stability index of a GFP-peptide fusion (yeast GPS) (PSI 1-4); higher = more stable; sorted into four equal gates, so the index is relative within each strain
How it was run: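 Tiled 17-residue yeast protein peptides were fused downstream of GFP in a plasmid that also expresses Cherry, and the pooled library was carried in yeast. Mid-log cultures in leucine-free medium were sorted into four equal gates by GFP/Cherry fluorescence ratio, and plasmids from each gate were PCR-amplified and Illumina-sequenced, with reads assigned to strains by barcodes. The protein stability index for each peptide was each gate's read frequency times its gate number, summed.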

Sequence | protein stability index (doa10∆) | protein stability index (pdr5∆) | protein stability index (san1∆) | protein stability index (ubr1∆)
FLTGQFASNKKINDESS [YML103C/NUP188] | 2.23 ± 0.05 | 2.23 ± 0.055 | 2.44 ± 0.067 | 2.4 ± 0.052
LQIAQLTLKHRQNKVQH [RPN10] | 2.26 ± 0.088 | 2.23 ± 0.071 | 1.74 ± 0.1 | 1.88 ± 0.065
TFENTNNTEKNDVTNKN [SIR4] | 2.78 ± 0.094 | 2.89 ± 0.068 | 2.88 ± 0.059 | 3.04 ± 0.039
ASVVPSASSLVITALKE [RPL12A] | 2.09 ± 0.044 | 2.3 ± 0.051 | 2.12 ± 0.071 | 1.96 ± 0.045
GLSMLAKLKELAEDVDD [RPC31] | 2.92 ± 0.079 | 3.31 ± 0.061 | 2.87 ± 0.078 | 2.95 ± 0.047
NGGKFSKSNLIHNYDSK [RGR1] | 2.4 ± 0.058 | 2.71 ± 0.06 | 3.11 ± 0.047 | 2.7 ± 0.064
KIDLLSGQFYFRNPTPL [RGR1] | 2.67 ± 0.22 | 3.03 ± 0.15 | 3.12 ± 0.076 | 2.82 ± 0.074
EFTLFMDIAERIAVLHQ [YGL172W/NUP49] | 2.77 ± 0.075 | 2.54 ± 0.056 | 2.24 ± 0.068 | 2.9 ± 0.048
WTVLFRKHHKKGITEEV [RPL24A] | 3.08 ± 0.12 | 2.1 ± 0.13 | 1.82 ± 0.15 | 2.64 ± 0.079
TVIKFRAGVCEYNEDSR [RPN13] | 2.26 ± 0.12 | 1.96 ± 0.071 | 1.8 ± 0.13 | 2.77 ± 0.07
LEANGRSLEKVNNSVSK [SSN2] | 3.48 ± 0.15 | 3.47 ± 0.12 | 3.18 ± 0.11 | 3.37 ± 0.1
QSLLSLYFEIIHGVLKN [FAS2] | 2.37 ± 0.12 | 1.84 ± 0.076 | 2.14 ± 0.17 | 1.51 ± 0.045
IERYPSKVTKKHGAKKV [RPL27B] | 3.26 ± 0.074 | 3.49 ± 0.095 | 3.43 ± 0.061 | 3.31 ± 0.059
DPGRYNKVCRIEAASTT [RPB8] | 2.41 ± 0.093 | 2.53 ± 0.099 | 2.48 ± 0.1 | 2.73 ± 0.082
TRYNRDYMLSMANIPER [SNU114] | 1.48 ± 0.073 | 2.44 ± 0.055 | 2.62 ± 0.1 | 1.43 ± 0.047
AKKLPNGNWEVGVHIAD [DIS3] | 1.61 ± 0.16 | 2.25 ± 0.15 | 2.51 ± 0.19 | 3.25 ± 0.16
ERSYPSEFANQNQGGAQ [ROX3] | 2.98 ± 0.083 | 3.07 ± 0.092 | 2.96 ± 0.066 | 3.17 ± 0.061
DKLSVSEISDGKLKRCS [SIN4] | 3.27 ± 0.15 | 3.38 ± 0.13 | 3.15 ± 0.1 | 3.6 ± 0.11
SFCGFLLYYIPSLELSA [YJR042W/NUP85] | 1.65 ± 0.051 | 1.58 ± 0.065 | 1.57 ± 0.1 | 1.95 ± 0.059
SDLKGKLSSAENANADL [YIL149C/MLP2] | 3.37 ± 0.15 | 3.35 ± 0.1 | 3.17 ± 0.12 | 3.17 ± 0.071

Sequence | protein stability index (doa10∆) | protein stability index (pdr5∆) | protein stability index (san1∆) | protein stability index (ubr1∆)
FPTRLGQGYRKVGIWPY [YJL039C/NUP192] | 3.49 ± 0.17 | 3.25 ± 0.14 | 2.96 ± 0.12 | 
DLKKFTSTITKYKQLLL [RPN3] | 2.92 ± 0.089 | 3 ± 0.055 | 2.91 ± 0.066 | 3.07 ± 0.045
DDLPYYVNALADVLYKT [QCR2] | 2.78 ± 0.061 | 2.86 ± 0.052 | 2.63 ± 0.045 | 2.63 ± 0.042
MDRTQTFIKDCLFTKCL [POP4] | 1.75 ± 0.05 | 1.75 ± 0.056 | 1.7 ± 0.1 | 1.94 ± 0.044
SDEEENNNNKSINKNNK [SSN2] | 2.94 ± 0.07 | 3.02 ± 0.079 | 2.72 ± 0.065 | 3.07 ± 0.08
QAQLRIDDKTQNDELTM [DIS3] | 2.42 ± 0.085 | 2.6 ± 0.07 | 2.5 ± 0.073 | 2.62 ± 0.088
SSNCHVRQKIKTLKRMI [POP1] | 1.41 ± 0.04 | 1.75 ± 0.053 | 1.42 ± 0.091 | 2.01 ± 0.045
ILLYGPPGTGKTLCARA [RPT1] | 1.26 ± 0.1 | 1.23 ± 0.18 | 1.36 ± 0.19 | 1.28 ± 0.12
KRPYESSRLDAELKLAG [RPS9A] | 3.24 ± 0.088 | 3.05 ± 0.065 | 2.81 ± 0.072 | 2.96 ± 0.14
WNLEKWREIIEKVRDYE [IRR1] | 3.06 ± 0.12 | 3.41 ± 0.15 | 3.3 ± 0.054 | 3.19 ± 0.066
LVPKRCLFESLSNEAAL [RPO31] |  | 2.84 ± 0.2 |  | 2.78 ± 0.22
SEFLNVPFESLQGVTYP [YIL149C/MLP2] | 2.94 ± 0.086 | 2.56 ± 0.078 | 2.72 ± 0.091 | 2.96 ± 0.063
VNAITVAQQQVQRQIEQ [SNF5] |  | 3.14 ± 0.2 |  | 3 ± 0.17
IAATQDFITGSYLISHK [RPO31] | 3.03 ± 0.083 | 3.14 ± 0.085 | 2.83 ± 0.093 | 3.13 ± 0.038
GGFTAYGGADYGEATSP [RPO21] | 1.79 ± 0.093 | 1.9 ± 0.069 | 1.98 ± 0.099 | 2.01 ± 0.068
VPPILIILPLDNATLTE [SSN2] | 2.97 ± 0.1 | 2.71 ± 0.11 | 2.58 ± 0.16 | 2.51 ± 0.087
SIWQVKDQLPDLESMGL [MED7] | 2.81 ± 0.11 | 3.04 ± 0.079 | 2.93 ± 0.12 | 3.35 ± 0.097
LPGELAKHAVSEGTRAV [HTB1] | 3.22 ± 0.11 | 3.46 ± 0.12 | 3.42 ± 0.071 | 3.31 ± 0.088
LGICTHLGCVPIGEAGD [RIP1] | 2.21 ± 0.08 | 2.33 ± 0.076 | 1.79 ± 0.1 | 1.9 ± 0.083

From the supplement of paper PMC9732359
